Source: the Human Domainome abundance scans (Beltran et al. 2025)
± gives the uncertainty stated by the source.

B1: Arginine-glutamic acid dipeptide repeats protein, residues 502 to 543; numbered along this chain, Q9P2R6 (parent)
chain: LKGYACRHCFTTTSKDWHHGGRENILLCTDCRIHFKKYGELP

Variants of: B1
Experiment: abundance fitness (aPCA) (normalised: wild type 0, dead -1); higher = more abundant; growth selection in yeast, the domain comes from the species named
Conditions: Homo sapiens
For LKGAACRHCFTTTSKDWHHGGRENILLCTDCRIHFKKYGELP [Y4A], the abundance fitness was -0.198 ± 0.039. LKGCACRHCFTTTSKDWHHGGRENILLCTDCRIHFKKYGELP [Y4C] showed an abundance fitness of -0.117 ± 0.053. For LKGDACRHCFTTTSKDWHHGGRENILLCTDCRIHFKKYGELP [Y4D], the abundance fitness was -0.037 ± 0.048. LKGEACRHCFTTTSKDWHHGGRENILLCTDCRIHFKKYGELP [Y4E] showed an abundance fitness of -0.135 ± 0.04. Work on LKGFACRHCFTTTSKDWHHGGRENILLCTDCRIHFKKYGELP [Y4F] yielded an abundance fitness of -0.032 ± 0.087. LKGGACRHCFTTTSKDWHHGGRENILLCTDCRIHFKKYGELP [Y4G] showed an abundance fitness of -0.207 ± 0.032. Work on LKGHACRHCFTTTSKDWHHGGRENILLCTDCRIHFKKYGELP [Y4H] yielded an abundance fitness of -0.084 ± 0.057. LKGIACRHCFTTTSKDWHHGGRENILLCTDCRIHFKKYGELP [Y4I] showed an abundance fitness of -0.089 ± 0.22. With LKGKACRHCFTTTSKDWHHGGRENILLCTDCRIHFKKYGELP [Y4K] the abundance fitness was -0.178 ± 0.055. LKGLACRHCFTTTSKDWHHGGRENILLCTDCRIHFKKYGELP [Y4L] showed an abundance fitness of -0.109 ± 0.039. Work on LKGMACRHCFTTTSKDWHHGGRENILLCTDCRIHFKKYGELP [Y4M] yielded an abundance fitness of 0.046 ± 0.044. Work on LKGNACRHCFTTTSKDWHHGGRENILLCTDCRIHFKKYGELP [Y4N] yielded an abundance fitness of 0.165 ± 0.073. Work on LKGPACRHCFTTTSKDWHHGGRENILLCTDCRIHFKKYGELP [Y4P] yielded an abundance fitness of -0.257 ± 0.047. LKGQACRHCFTTTSKDWHHGGRENILLCTDCRIHFKKYGELP [Y4Q] gave an abundance fitness of -0.273 ± 0.044. LKGRACRHCFTTTSKDWHHGGRENILLCTDCRIHFKKYGELP [Y4R] gave an abundance fitness of -0.155 ± 0.036. For LKGSACRHCFTTTSKDWHHGGRENILLCTDCRIHFKKYGELP [Y4S], the abundance fitness was -0.075 ± 0.038. In the case of LKGTACRHCFTTTSKDWHHGGRENILLCTDCRIHFKKYGELP [Y4T], the abundance fitness is reported as -0.074 ± 0.063. Variant LKGVACRHCFTTTSKDWHHGGRENILLCTDCRIHFKKYGELP [Y4V] has an abundance fitness of -0.181 ± 0.039. LKGWACRHCFTTTSKDWHHGGRENILLCTDCRIHFKKYGELP [Y4W] showed an abundance fitness of -0.22 ± 0.04. Variant LKGYCCRHCFTTTSKDWHHGGRENILLCTDCRIHFKKYGELP [A5C] has an abundance fitness of 0.032 ± 0.058. For LKGYDCRHCFTTTSKDWHHGGRENILLCTDCRIHFKKYGELP [A5D], the abundance fitness was -0.022 ± 0.072. Variant LKGYFCRHCFTTTSKDWHHGGRENILLCTDCRIHFKKYGELP [A5F] has an abundance fitness of 0.144 ± 0.059. Variant LKGYGCRHCFTTTSKDWHHGGRENILLCTDCRIHFKKYGELP [A5G] has an abundance fitness of 0.012 ± 0.035. LKGYHCRHCFTTTSKDWHHGGRENILLCTDCRIHFKKYGELP [A5H] showed an abundance fitness of 0.044 ± 0.059. LKGYKCRHCFTTTSKDWHHGGRENILLCTDCRIHFKKYGELP [A5K] gave an abundance fitness of -0.104 ± 0.055. LKGYLCRHCFTTTSKDWHHGGRENILLCTDCRIHFKKYGELP [A5L] gave an abundance fitness of -0.018 ± 0.036. LKGYMCRHCFTTTSKDWHHGGRENILLCTDCRIHFKKYGELP [A5M] gave an abundance fitness of -0.046 ± 0.058. With LKGYNCRHCFTTTSKDWHHGGRENILLCTDCRIHFKKYGELP [A5N] the abundance fitness was -0.116 ± 0.17. Variant LKGYPCRHCFTTTSKDWHHGGRENILLCTDCRIHFKKYGELP [A5P] has an abundance fitness of -0.335 ± 0.053. Work on LKGYQCRHCFTTTSKDWHHGGRENILLCTDCRIHFKKYGELP [A5Q] yielded an abundance fitness of 0.039 ± 0.04. Variant LKGYRCRHCFTTTSKDWHHGGRENILLCTDCRIHFKKYGELP [A5R] has an abundance fitness of 0.012 ± 0.035. In the case of LKGYSCRHCFTTTSKDWHHGGRENILLCTDCRIHFKKYGELP [A5S], the abundance fitness is reported as 0.007 ± 0.041. Work on LKGYTCRHCFTTTSKDWHHGGRENILLCTDCRIHFKKYGELP [A5T] yielded an abundance fitness of 0.04 ± 0.043. For LKGYVCRHCFTTTSKDWHHGGRENILLCTDCRIHFKKYGELP [A5V], the abundance fitness was -0.039 ± 0.039. For LKGYWCRHCFTTTSKDWHHGGRENILLCTDCRIHFKKYGELP [A5W], the abundance fitness was 0.014 ± 0.037. Work on LKGYYCRHCFTTTSKDWHHGGRENILLCTDCRIHFKKYGELP [A5Y] yielded an abundance fitness of -0.136 ± 0.088. For LKGYAARHCFTTTSKDWHHGGRENILLCTDCRIHFKKYGELP [C6A], the abundance fitness was -0.969 ± 0.072. With LKGYAERHCFTTTSKDWHHGGRENILLCTDCRIHFKKYGELP [C6E] the abundance fitness was -0.702 ± 0.059. With LKGYAFRHCFTTTSKDWHHGGRENILLCTDCRIHFKKYGELP [C6F] the abundance fitness was -1.03 ± 0.12. LKGYAGRHCFTTTSKDWHHGGRENILLCTDCRIHFKKYGELP [C6G] gave an abundance fitness of -0.878 ± 0.048. LKGYAHRHCFTTTSKDWHHGGRENILLCTDCRIHFKKYGELP [C6H] gave an abundance fitness of -0.601 ± 0.075. For LKGYAKRHCFTTTSKDWHHGGRENILLCTDCRIHFKKYGELP [C6K], the abundance fitness was -0.886 ± 0.17. Variant LKGYALRHCFTTTSKDWHHGGRENILLCTDCRIHFKKYGELP [C6L] has an abundance fitness of -1 ± 0.072. LKGYAMRHCFTTTSKDWHHGGRENILLCTDCRIHFKKYGELP [C6M] gave an abundance fitness of -1.1 ± 0.08. Variant LKGYAQRHCFTTTSKDWHHGGRENILLCTDCRIHFKKYGELP [C6Q] has an abundance fitness of -0.894 ± 0.069. In the case of LKGYARRHCFTTTSKDWHHGGRENILLCTDCRIHFKKYGELP [C6R], the abundance fitness is reported as -0.996 ± 0.052. Variant LKGYASRHCFTTTSKDWHHGGRENILLCTDCRIHFKKYGELP [C6S] has an abundance fitness of -0.939 ± 0.064. LKGYATRHCFTTTSKDWHHGGRENILLCTDCRIHFKKYGELP [C6T] showed an abundance fitness of -0.902 ± 0.08. In the case of LKGYAVRHCFTTTSKDWHHGGRENILLCTDCRIHFKKYGELP [C6V], the abundance fitness is reported as -1.12 ± 0.072. Variant LKGYAWRHCFTTTSKDWHHGGRENILLCTDCRIHFKKYGELP [C6W] has an abundance fitness of -1.28 ± 0.1. In the case of LKGYAYRHCFTTTSKDWHHGGRENILLCTDCRIHFKKYGELP [C6Y], the abundance fitness is reported as -1.05 ± 0.13. With LKGYACAHCFTTTSKDWHHGGRENILLCTDCRIHFKKYGELP [R7A] the abundance fitness was 0.074 ± 0.036. Variant LKGYACDHCFTTTSKDWHHGGRENILLCTDCRIHFKKYGELP [R7D] has an abundance fitness of -0.142 ± 0.097. With LKGYACEHCFTTTSKDWHHGGRENILLCTDCRIHFKKYGELP [R7E] the abundance fitness was 0.064 ± 0.052. In the case of LKGYACFHCFTTTSKDWHHGGRENILLCTDCRIHFKKYGELP [R7F], the abundance fitness is reported as -0.185 ± 0.1. Work on LKGYACGHCFTTTSKDWHHGGRENILLCTDCRIHFKKYGELP [R7G] yielded an abundance fitness of 0.029 ± 0.031. Work on LKGYACHHCFTTTSKDWHHGGRENILLCTDCRIHFKKYGELP [R7H] yielded an abundance fitness of -0.441 ± 0.19. Work on LKGYACIHCFTTTSKDWHHGGRENILLCTDCRIHFKKYGELP [R7I] yielded an abundance fitness of -0.188 ± 0.15. LKGYACKHCFTTTSKDWHHGGRENILLCTDCRIHFKKYGELP [R7K] gave an abundance fitness of 0.087 ± 0.043. With LKGYACLHCFTTTSKDWHHGGRENILLCTDCRIHFKKYGELP [R7L] the abundance fitness was -0.067 ± 0.035.
